# Measurements as given in PMC5779224, “Autoinhibition of ankyrin-B/G membrane target bindings by intrinsically disordered segments from the tail regions” (eLife, 2017).
# T1: AnkB 28–965 (MBD + AI-c + AI-b) (human, UniProt Q01484-2 28-965)
# T1 construct: numbers count on: human 220 kDa AnkB NM_020977.3; also called extended MBD containing the entire linker; source: E. coli BL21 (DE3), purified (Ni2+-NTA, size exclusion)
# T1 sequence (looked up): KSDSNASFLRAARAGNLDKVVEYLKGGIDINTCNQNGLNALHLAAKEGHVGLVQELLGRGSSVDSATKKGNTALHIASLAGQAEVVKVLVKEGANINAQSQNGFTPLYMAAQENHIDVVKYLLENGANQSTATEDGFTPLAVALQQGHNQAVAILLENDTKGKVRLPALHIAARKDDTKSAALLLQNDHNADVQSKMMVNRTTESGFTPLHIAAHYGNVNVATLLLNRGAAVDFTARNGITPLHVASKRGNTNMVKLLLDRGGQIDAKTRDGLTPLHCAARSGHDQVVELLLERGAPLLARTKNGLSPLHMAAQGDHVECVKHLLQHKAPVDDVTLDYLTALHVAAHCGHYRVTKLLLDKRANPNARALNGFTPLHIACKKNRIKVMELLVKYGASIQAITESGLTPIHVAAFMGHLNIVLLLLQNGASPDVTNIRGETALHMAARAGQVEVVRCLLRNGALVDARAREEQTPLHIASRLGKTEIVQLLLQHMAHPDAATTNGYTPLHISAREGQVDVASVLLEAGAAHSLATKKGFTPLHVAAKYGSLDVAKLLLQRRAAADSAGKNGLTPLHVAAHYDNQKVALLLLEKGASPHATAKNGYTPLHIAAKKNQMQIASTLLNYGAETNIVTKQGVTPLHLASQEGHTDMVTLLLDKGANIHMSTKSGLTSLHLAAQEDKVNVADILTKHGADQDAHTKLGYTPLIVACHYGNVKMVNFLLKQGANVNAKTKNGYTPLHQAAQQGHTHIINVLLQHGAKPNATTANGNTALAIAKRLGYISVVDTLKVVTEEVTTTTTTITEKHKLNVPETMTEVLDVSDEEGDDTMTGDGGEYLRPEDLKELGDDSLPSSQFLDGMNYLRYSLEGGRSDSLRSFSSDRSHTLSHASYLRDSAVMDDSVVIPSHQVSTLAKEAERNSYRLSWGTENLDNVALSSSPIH
# T2: AnkB 28–847 (MBD + partial AI-c) (human, UniProt Q01484-2 28-847)
# T2 construct: ankyrin-B (AnkB), human 220 kDa isoform, residues 28-847: MBD and a short 20-residue linker; numbers count on: human 220 kDa AnkB NM_020977.3; also called extended MBD with a short 20-residue linker; source: E. coli BL21 (DE3), purified (Ni2+-NTA, size exclusion)
# T2 sequence (looked up): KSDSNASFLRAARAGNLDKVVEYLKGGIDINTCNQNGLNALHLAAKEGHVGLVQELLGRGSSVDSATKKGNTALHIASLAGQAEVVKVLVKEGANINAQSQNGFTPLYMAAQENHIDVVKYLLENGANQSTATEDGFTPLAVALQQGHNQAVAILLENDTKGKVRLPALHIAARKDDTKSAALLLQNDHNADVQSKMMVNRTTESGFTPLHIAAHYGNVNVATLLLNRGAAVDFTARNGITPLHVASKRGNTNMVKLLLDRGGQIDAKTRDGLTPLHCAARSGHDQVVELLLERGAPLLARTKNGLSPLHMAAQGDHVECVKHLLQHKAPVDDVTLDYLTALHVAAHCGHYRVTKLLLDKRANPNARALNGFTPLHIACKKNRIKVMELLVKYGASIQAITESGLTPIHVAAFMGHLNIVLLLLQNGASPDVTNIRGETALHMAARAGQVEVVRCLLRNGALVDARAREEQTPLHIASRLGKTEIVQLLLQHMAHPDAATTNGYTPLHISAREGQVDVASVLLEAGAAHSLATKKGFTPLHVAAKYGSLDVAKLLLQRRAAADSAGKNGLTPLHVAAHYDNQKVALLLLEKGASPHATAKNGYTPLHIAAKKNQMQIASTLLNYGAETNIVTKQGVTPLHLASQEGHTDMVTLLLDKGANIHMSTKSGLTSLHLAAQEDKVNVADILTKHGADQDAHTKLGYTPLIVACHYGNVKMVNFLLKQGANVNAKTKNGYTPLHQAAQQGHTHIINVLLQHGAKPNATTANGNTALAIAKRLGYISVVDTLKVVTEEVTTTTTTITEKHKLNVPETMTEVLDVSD
# B1: Nav1.2 (aa 1035–1129) (domain or fragment, mouse, UniProt B1AWN6 1035-1129, looked up)
# chain: KALDEIKPLEDLNNKKDSCISNHTTIEIGKDLNYLKDGNGTTSGIGSSVEKYVVDESDYMSFINNPSLTVTVPIAVGESDFENLNTEEFSSESDM
# notes: source: E. coli BL21 (DE3), purified (Ni2+-NTA, size exclusion)
# Assays:
# [1] = biological target: T1, AnkB 28–965 (MBD + AI-c + AI-b); assay: ITC; VP-ITC MicroCal, 25 °C; proteins in 50 mM Tris-HCl pH 7.8, 1 mM DTT, 1 mM EDTA with 100 mM or 500 mM NaCl as required; who was titrated is not told; conditions: both partners purified
# [2] = biological target: T2, AnkB 28–847 (MBD + partial AI-c); assay: as above; conditions: both partners purified
binder,measurement,setting,value
B1,binding result,[1],binds
same,binding result,[2],binds
